Source: paper PMC5914118, “Exploiting the Concept of Multivalency with ^68Ga- and ^89Zr-Labelled Fusarinine C-Minigastrin Bioconjugates for Targeting CCK2R Expression” (Contrast Media & Molecular Imaging, 2018)
Like-named read-outs stand apart in the source and are kept apart here. Marks after values point to notes of the source that are not given here.

Columns and labels:
[1] = format: physicochemical
Description: Aliquots (50 μL) of ^68Ga- and ^89Zr-labelled mono-, di-, and trimer (10 μM) were diluted in 450 μL PBS. After adding 500 μL octanol the mixture was vortexed with 1400 rpm (MS 3 basic vortexer, IKA, Staufen, Germany) for 15 min at RT followed by centrifugation for 2 min at 4500 rpm. Subsequently, 100 μL aliquots of the organic and the aqueous layer were collected and logD values were calculated using Excel (n = 3, six replicates) after gamma counter measurement.

[2] = tested on: A431-CCK2R/A431-mock tumour xenografted BALB/c nude mice; settings: mouse, in vivo
Description: All animal experiments were conducted in compliance with the Austrian and Dutch animal protection laws and with approval of the Austrian Ministry of Science (BMWF-66.011/000604-II/3b/2012 and BMWFW-66.011/0049-WF/II/3b/2014). In vivo stability studies were conducted in 5-week-old female BALB/c mice (in-house breed, ZVTA Innsbruck, Dr. Hermann Dietrich). The biodistribution studies were performed using female 8−10-week-old athymic BALB/c nude mice (Charles River Laboratories, Sulzfeld, Germany). Tumour xenografts were induced by subcutaneous injection of 2 × 10^6 A431-CCK2R cells (receptor positive) in the right and the same amount of A431-mock (receptor negative) in the left flank. Tumours were allowed to grow until they had reached a volume of 0.3–0.6 cm^3. To evaluate the biodistribution profile nude mice (n = 4) were intravenously injected with either 1-2 MBq ^68Ga- or 0.3 MBq ^89Zr-labelled mono-, di-, and trimer (0.1–0.2 nmol). The animals were sacrificed by cervical dislocation after 1 h as well as 2 h and 4 h in case of ^68Ga- and ^89Zr-labelled trimer, followed by the collection of organs and tissue. The collected samples were measured in the gamma counter and the results were calculated as percentage of injected dose per gram tissue (% ID/g).

SMILES: CSCC[C@H](NC(=O)[C@H](Cc1c[nH]c2ccccc12)NC(=O)CNC(=O)[C@H](Cc1ccc(O)cc1)NC(=O)[C@H](C)NC(=O)[C@@H](CCC(=O)O)NC(=O)CCSC1CC(=O)N(CCC(=O)NC2CCCN(O)C(=O)C=C(C)CCOC(=O)C(NC(=O)CCN3C(=O)CC(SCCC(=O)N[C@H](CCC(=O)O)C(=O)N[C@@H](C)C(=O)N[C@@H](Cc4ccc(O)cc4)C(=O)NCC(=O)N[C@@H](Cc4c[nH]c5ccccc45)C(=O)N[C@@H](CCSC)C(=O)N[C@@H](CC(=O)O)C(=O)N[C@@H](Cc4ccccc4)C(N)=O)C3=O)CCCN(O)C(=O)C=C(C)CCOC(=O)C(NC(C)=O)CCCN(O)C(=O)C=C(C)CCOC2=O)C1=O)C(=O)N[C@@H](CC(=O)O)C(=O)N[C@@H](Cc1ccccc1)C(N)=O (stereo partly drawn) [^68Ga-labelled Dimer, metal not drawn]
- Distribution coefficient logD (pH 7.4) [1]: −2.38 ± 0.04
- Tumour-to-organ ratio (T/O): A431-mock [2]: 17.9 ± 6.1^c
- Tumour-to-organ ratio (T/O): Blood [2]: 16.0 ± 3.1^cd
- Tumour-to-organ ratio (T/O): Bone [2]: 11.6 ± 1.9^c
- Tumour-to-organ ratio (T/O): Heart [2]: 27.2 ± 4.8^cd
- Tumour-to-organ ratio (T/O): Intestine [2]: 19.9 ± 4.9^acd
- Tumour-to-organ ratio (T/O): Kidneys [2]: 0.30 ± 0.06^cd
- Tumour-to-organ ratio (T/O): Liver [2]: 11.1 ± 2.4^c
- Tumour-to-organ ratio (T/O): Lung [2]: 14.4 ± 2.3^cd
- Tumour-to-organ ratio (T/O): Muscle [2]: 31.4 ± 13.2^cd
- Tumour-to-organ ratio (T/O): Pancreas [2]: 17.9 ± 3.2^cd
- Tumour-to-organ ratio (T/O): Spleen [2]: 23.1 ± 4.2^cd
- Tumour-to-organ ratio (T/O): Stomach [2]: 4.0 ± 0.5^c
- Biodistribution: A431-CCK2R tumour (receptor positive) ([2]; 1 h): 8.36 ± 0.90^ac % ID/g
- Biodistribution: A431-mock tumour (receptor negative) ([2]; 1 h): 0.36 ± 0.22^cd % ID/g
- Biodistribution: Blood ([2]; 1 h): 0.53 ± 0.06^cd % ID/g
- Biodistribution: Bone ([2]; 1 h): 0.60 ± 0.21^cd % ID/g
- Biodistribution: Heart ([2]; 1 h): 0.31 ± 0.04^cd % ID/g
- Biodistribution: Intestine ([2]; 1 h): 0.44 ± 0.06^c % ID/g
- Biodistribution: Kidneys ([2]; 1 h): 28.9 ± 3.4^cd % ID/g
- Biodistribution: Liver ([2]; 1 h): 0.78 ± 0.09^c % ID/g
- Biodistribution: Lung ([2]; 1 h): 0.59 ± 0.08^cd % ID/g
- Biodistribution: Muscle ([2]; 1 h): 0.30 ± 0.08^cd % ID/g
- Biodistribution: Pancreas ([2]; 1 h): 0.48 ± 0.06^cd % ID/g
- Biodistribution: Spleen ([2]; 1 h): 0.37 ± 0.04^cd % ID/g
- Biodistribution: Stomach ([2]; 1 h): 2.13 ± 0.23^c % ID/g

SMILES: CSCC[C@H](NC(=O)[C@H](Cc1c[nH]c2ccccc12)NC(=O)CNC(=O)[C@H](Cc1ccc(O)cc1)NC(=O)[C@H](C)NC(=O)[C@@H](CCC(=O)O)NC(=O)CCSC1CC(=O)N(CCC(=O)NC2CCCN(O)C(=O)C=C(C)CCOC(=O)C(NC(=O)CCN3C(=O)CC(SCCC(=O)N[C@H](CCC(=O)O)C(=O)N[C@@H](C)C(=O)N[C@@H](Cc4ccc(O)cc4)C(=O)NCC(=O)N[C@@H](Cc4c[nH]c5ccccc45)C(=O)N[C@@H](CCSC)C(=O)N[C@@H](CC(=O)O)C(=O)N[C@@H](Cc4ccccc4)C(N)=O)C3=O)CCCN(O)C(=O)C=C(C)CCOC(=O)C(NC(=O)CCN3C(=O)CC(SCCC(=O)N[C@H](CCC(=O)O)C(=O)N[C@@H](C)C(=O)N[C@@H](Cc4ccc(O)cc4)C(=O)NCC(=O)N[C@@H](Cc4c[nH]c5ccccc45)C(=O)N[C@@H](CCSC)C(=O)N[C@@H](CC(=O)O)C(=O)N[C@@H](Cc4ccccc4)C(N)=O)C3=O)CCCN(O)C(=O)C=C(C)CCOC2=O)C1=O)C(=O)N[C@@H](CC(=O)O)C(=O)N[C@@H](Cc1ccccc1)C(N)=O (stereo partly drawn) [^89Zr-labelled Trimer, metal not drawn]
- Distribution coefficient logD (pH 7.4) [1]: −2.41 ± 0.04
- Biodistribution: A431-CCK2R tumour (receptor positive) ([2]; 1 h): 4.28 ± 0.95^b % ID/g
- Biodistribution: A431-mock tumour (receptor negative) ([2]; 1 h): 0.81 ± 0.24^d % ID/g
- Biodistribution: Blood ([2]; 1 h): 1.46 ± 0.32^d % ID/g
- Biodistribution: Bone ([2]; 1 h): 1.39 ± 0.65 % ID/g
- Biodistribution: Heart ([2]; 1 h): 0.92 ± 0.21^d % ID/g
- Biodistribution: Intestine ([2]; 1 h): 0.56 ± 0.14^d % ID/g
- Biodistribution: Kidneys ([2]; 1 h): 57.7 ± 14.4^e % ID/g
- Biodistribution: Liver ([2]; 1 h): 0.84 ± 0.21^d % ID/g
- Biodistribution: Lung ([2]; 1 h): 1.44 ± 0.39^d % ID/g
- Biodistribution: Muscle ([2]; 1 h): 0.47 ± 0.18^cd % ID/g
- Biodistribution: Pancreas ([2]; 1 h): 1.56 ± 0.44 % ID/g
- Biodistribution: Spleen ([2]; 1 h): 0.79 ± 0.23^d % ID/g
- Biodistribution: Stomach ([2]; 1 h): 3.10 ± 0.97 % ID/g
- Biodistribution: A431-CCK2R tumour (receptor positive) ([2]; 2 h): 8.90 ± 3.10^e % ID/g
- Biodistribution: A431-mock tumour (receptor negative) ([2]; 2 h): 0.93 ± 0.29^d % ID/g
- Biodistribution: Blood ([2]; 2 h): 1.19 ± 0.32^d % ID/g
- Biodistribution: Bone ([2]; 2 h): 2.07 ± 0.68 % ID/g
- Biodistribution: Heart ([2]; 2 h): 0.91 ± 0.25^d % ID/g
- Biodistribution: Intestine ([2]; 2 h): 0.44 ± 0.30^d % ID/g
- Biodistribution: Kidneys ([2]; 2 h): 96.5 ± 23.6^f % ID/g
- Biodistribution: Liver ([2]; 2 h): 1.28 ± 0.35^d % ID/g
- Biodistribution: Lung ([2]; 2 h): 1.21 ± 0.23^d % ID/g
- Biodistribution: Muscle ([2]; 2 h): 0.42 ± 0.07^d % ID/g
- Biodistribution: Pancreas ([2]; 2 h): 1.51 ± 0.40 % ID/g
- Biodistribution: Spleen ([2]; 2 h): 0.90 ± 0.25^d % ID/g
- Biodistribution: Stomach ([2]; 2 h): 3.15 ± 0.75 % ID/g
- Biodistribution: A431-CCK2R tumour (receptor positive) ([2]; 4 h): 14.39 ± 3.92 % ID/g
- Biodistribution: A431-mock tumour (receptor negative) ([2]; 4 h): 0.66 ± 0.06^d % ID/g
- Biodistribution: Blood ([2]; 4 h): 0.75 ± 0.26^d % ID/g
- Biodistribution: Bone ([2]; 4 h): 4.41 ± 1.31 % ID/g
- Biodistribution: Heart ([2]; 4 h): 0.91 ± 0.09^d % ID/g
- Biodistribution: Intestine ([2]; 4 h): 0.65 ± 0.07^d % ID/g
- Biodistribution: Kidneys ([2]; 4 h): 150.5 ± 18.3 % ID/g
- Biodistribution: Liver ([2]; 4 h): 1.71 ± 0.32^d % ID/g
- Biodistribution: Lung ([2]; 4 h): 0.84 ± 0.20^d % ID/g
- Biodistribution: Muscle ([2]; 4 h): 0.62 ± 0.23 % ID/g
- Biodistribution: Pancreas ([2]; 4 h): 2.34 ± 0.59 % ID/g
- Biodistribution: Spleen ([2]; 4 h): 0.95 ± 0.13^d % ID/g
- Biodistribution: Stomach ([2]; 4 h): 3.50 ± 0.86^d % ID/g
